Assay [1] relates to crush injury-induced schwannoma. Kind of assay: In situ tumour size quantification: sciatic nerve diameter after crush injury-induced schwannoma formation. The settings on record: KO mice. Format: in vivo, Nf2flox;P0-Cre;Nefh-Cre mutant mice. The text has this:
(§1) Unilateral injuries of sciatic nerves were accomplished according to a previously described method (Bauder and Ferguson, 2012). In brief, 8 to 10 week old mice were anesthetized using 2% isoflurane in 100% oxygen. Fur was then removed from one hind limb. After an appropriate incision of the skin, the gluteal musculature was separated in order to reveal the right sciatic nerve. Using haemostatic forceps (Ultra Fine Haemostat; #13021-12; tip width 0.6 mm; Fine Science Tools; Germany), the nerve was crushed once by the application of a defined pressure for 20 s. The locking mechanism of the haemostatic forceps with a series of interlocking teeth ensured reproducibility and standardization of crush injury. Finally, both the gluteal musculature and skin incision were sutured using appropriate surgical suture material.
An EGF domain containing 7 kDa protein of recombinant human Neuregulin 1 (“rhNRG1”) was purchased from Reprokine (#RKQ02297; USA). Protein was firstly resolved in ddH2O and further diluted in phosphate-buffered saline (PBS) to reach target concentrations. […]
Sciatic nerve crush injury was conducted on WT mice and Nf2flox;P0-Cre;Nefh-Cre mutant mice as described above. […] Moreover by determining the myelin thickness, structural integrity of non-crushed, intact nerves was assessed (FIG. 7).

For assay [2], the system named is sciatic nerve crush injury. Kind of assay: Single-frame motion analysis (foot-base angle): functional recovery after sciatic nerve crush. Type of assay: in vivo, mice.
Text: as §1
To evaluate locomotor function, mice were accustomed, in 3-4 trials, to beam-walking 1 week prior to surgery. In this test, the animal walks voluntarily from one end of a horizontal beam (length 1000 mm, width 40 mm) towards its home cage located at the other end of the beam. For all mice, a rear view of one walking trial was captured once prior to surgery and at different time-points after surgery with a Video camera and stored on a personal computer in Audio Video Interleaved (AVI) format. The video sequences were examined using VirtualDub 1.6.19 software.
It was tested whether rhNRG1 protein replacement can improve functional recovery of mice over a time period of 8 weeks after sciatic nerve crush.

B1: rhNRG1: EGF domain containing 7 kDa protein of recombinant human Neuregulin 1, purchased from Reprokine (#RKQ02297) (protein, listed as Homo sapiens)
chain: SHLVKCAEKEKTFCVNGGECFMVKDLSNPSRYLCKCPNEFTGDRCQNYVMASFYKHLGIEF
Regarding B1, the “sciatic nerve diameter 3 months after crush injury” value is given as “about 1.4 mm” in assay [1] (local collagen sponges soaked in 0.2 mg/ml rhNRG1, KO vehicle ACS about 1.8 mm, WT about 1 mm) and “about 1.5 mm” in assay [1] (systemic (ip) rhNRG1, KO vehicle about 2 mm, WT vehicle about 1 mm). The “functional recovery after sciatic nerve crush (SFMA)” value in assay [2] (Nf2flox;P0-Cre;Nefh-Cre mutant mice, intraperitoneal injections every other day, vs no treatment or saline) was “significantly improved recovery”; in assay [2] (wildtype animals, systemic rhNRG1, 8 weeks), “does not enhance regeneration”. Further, in assay [2] (Nf2flox;P0-Cre;Nefh-Cre mutant mice, local administration with absorbable collagen sponges, vs control treatment), the “functional regeneration after sciatic nerve crush (SFMA)” value was “able to increase functional regeneration”.

These data come from patent US11426447B2, “Neuregulin for the treatment of tumors of the nervous system” (LEIBNIZ-INSTITUT FUR …, priority 2016, dated 2022).
